{
  "source": "paper PMC10917784",
  "about": "(Nature Communications, 2024)",
  "binders": {"B1": {"name": "daratumumab (antibody, V domains shown)", "VH": "EVQLLESGGGLVQPGGSLRLSCAVSGFTFNSFAMSWVRQAPGKGLEWVSAISGSGGGTYYADSVKGRFTISRDNSKNTLYLQMNSLRAEDTAVYFCAKDKILWFGEPVFDYWGQGTLVTVSS", "VL": "not shown", "notes": "whole antibody in the assay; the PDB entry holds only part of it; also called Darzalex; source: bought: Janssen Biotech Inc"}},
  "conditions_in_all_cases": "one partner purified",
  "key": {"CD38 on tumor cell lines [1]": {"molecular_target": "T1, CD38 on tumor cell lines (Homo sapiens, UniProt P28907)", "T1 construct": "CD38 on the surface of CD38high (Daudi, Raji) and CD38low (NCI-H929, KMS-12-BM) cell lines; source: endogenous, on Daudi, Raji, NCI-H929 and KMS-12-BM cells", "assay": "flow cytometry on cells; Raji cells, increasing antibody concentrations, 4 °C, 30 min, labelled anti-human IgG secondary; Kd from fit of RFI"}, "CD38 on tumor cell lines [2]": {"molecular_target": "T1, CD38 on tumor cell lines", "assay": "flow cytometry on cells; Daudi cells, increasing antibody concentrations, 4 °C, 30 min, labelled anti-human IgG secondary; Kd from fit of RFI"}, "CD38 on tumor cell lines [3]": {"molecular_target": "T1, CD38 on tumor cell lines", "assay": "flow cytometry on cells; NCI-H929 cells, increasing antibody concentrations, 4 °C, 30 min, labelled anti-human IgG secondary; Kd from fit of RFI"}, "CD38 on tumor cell lines [4]": {"molecular_target": "T1, CD38 on tumor cell lines", "assay": "flow cytometry on cells; KMS-12-BM cells, increasing antibody concentrations, 4 °C, 30 min, labelled anti-human IgG secondary; Kd from fit of RFI"}},
  "data": [
    {"binder": "B1", "values": [
      {"measurement": "Kd", "setting": "CD38 on tumor cell lines [1]", "value": 0.33, "unit": "nM"},
      {"measurement": "Kd", "setting": "CD38 on tumor cell lines [2]", "value": 0.258, "unit": "nM"},
      {"measurement": "Kd", "setting": "CD38 on tumor cell lines [3]", "value": 0.506, "unit": "nM"},
      {"measurement": "Kd", "setting": "CD38 on tumor cell lines [4]", "value": 0.138, "unit": "nM"}
    ]}
  ]
}
